From the supplement of paper PMC10567573
± gives the standard deviation.

Experiment: protein stability index of a GFP-peptide fusion (GPS, HEK-293T) (PSI 1-6); higher = more stable
Details: c terminus: a fixed tail appended
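Also: 24-mer peptide tiles fused after GFP, lentivirally expressed, FACS-sorted into six equal bins by GFP/DsRed ratio, decoded by Illumina sequencing, PSI is the read-weighted mean bin number.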

Sequence | protein stability index (treatment: DMSO) | protein stability index (treatment: MLN4924 1 uM, 8 h)
GGRTALHHAALNGHVEMVNLLLAK [ANKRD44] | 2.76 ± 0.35 | 2.69 ± 0.23
TQYFVQENYLEYRQVPGSDPACYE [MAGEA6] | 3.34 ± 0.29 | 3.59 ± 0.38
VKAKEQIENYKKQTRNGLGKDHEI [FUT8] | 4.59 ± 0.17 | 4.76 ± 0.16
EVAGGGTPLLIAARYGHLDVVEYL [FEM1A] | 2.46 ± 0.19 | 2.32 ± 0.34
SLSHINAYACLVCGKYFQGRGLKS [USP39] | 2.14 ± 0.39 | 2.07 ± 0.42
EEWNALQSVENCPEDLAQLEELID [RPAIN] | 5.14 ± 0.29 | 5.29 ± 0.26
SLEHVQLFDLMRRMLEFDPAQRIT [CLK3] | 2.31 ± 0.29 | 2.07 ± 0.36
LHVAARYGHELLINTLITSGADTA [ANKRD44] | 2.52 ± 0.28 | 2.44 ± 0.72
CLAQGWKQYQQRAFGWFRCSSCQR [RTP4] | 2.15 ± 0.15 | 2.27 ± 0.28
QQPPRLLIVHIALPSWADICTNLC [M1AP] | 3 ± 0.3 | 2.74 ± 0.51
EFAGSSPQSSKSTVVKSLIDNSSE [FAN1] | 5.08 ± 0.27 | 5.28 ± 0.12
TLHPDASANFHSLDDIYYFGGQNA [FUT8] | 3.21 ± 0.12 | 3.27 ± 0.16
PSMVSGGYVANSSNCISGVCSVRG [KRT71] | 3.35 ± 0.082 | 3.4 ± 0.23
PEMYILKGGYKEFFPQHPNFCEPQ [CDC25B] | 2.6 ± 0.46 | 2.84 ± 0.36
LLLGAGESGKSTIVKQMKIIHEAG [GNAI1] | 2.51 ± 0.47 | 2.54 ± 0.65
EEEKLKAEEIRIKGKYNISSEDYR [KCNK9] | 5.21 ± 0.19 | 5.29 ± 0.13
IQKLTQIETGENVTGMELEFKRLA [PTPRD] | 3.51 ± 0.08 | 3.55 ± 0.43
CAFSRTLPWSSVLRVWDMFFCEGV [TBC1D10A] | 2.85 ± 0.42 | 2.94 ± 0.49
LQRDFLKQRPTKLKSLIRLVKHWY [OAS1] | 3.3 ± 0.41 | 3.15 ± 0.23
VCCNPYHFSRLCGPESPPPPYSRL [SMAD6] | 2.15 ± 0.36 | 2.15 ± 0.18
ELAALLIERGASLEEVNDEGYTPL [ANKRD17] | 2.34 ± 0.29 | 2.78 ± 0.53
GACPGADEAGGGAEGDSWEEEGFG [WEE1] | 5.35 ± 0.24 | 5.54 ± 0.21

Sequence | protein stability index (treatment: DMSO) | protein stability index (treatment: MLN4924 1 uM, 8 h)
TCSADHLIILWKNGERESGLRSLR [WDR41] | 2.09 ± 0.25 | 2.28 ± 0.17
SDLKDDDAVPPGMESLISAPLVKT [CDC25B] | 5.21 ± 0.28 | 5.17 ± 0.43
DVMLEELSLLTNRGSKMFKLRQMR [MYOZ1] | 2.48 ± 0.19 | 2.67 ± 0.29
VGSDDLERIEARLATLEGDDPSLR [PSD2] | 5.32 ± 0.17 | 5.42 ± 0.17
TVKHIDAALSEENTGKTYFFVANK [MMP1] | 3.28 ± 0.32 | 3.38 ± 0.18
SELRRTMQALEIELQSQLSMKASL [KRT17] | 2.46 ± 0.21 | 2.23 ± 0.2
GFKHRLWVYSGRRGVHCWVCDESV [PRIM1] | 2.81 ± 1.4 | 2.31 ± 0.59
VTDEEIESLMKDGDKNNDGRIDFD [TNNC2] | 5.52 ± 0.14 | 5.46 ± 0.3
TTKFTGSHKERFDPSGKGKGKAGR [TPPP] | 4.83 ± 0.2 | 4.93 ± 0.32
MTLAYDNGINLFDTAEVYAAGKAE [KCNAB2] | 3.54 ± 0.29 | 3.8 ± 0.34
QLSATGQKLYVRLFQRKLSWIKMT [FAN1] | 2.3 ± 0.6 | 2.04 ± 0.17
SAENGLEKSGFSQHQNKSPPKVKA [DLC1] | 5.14 ± 0.44 | 5.1 ± 0.45
FLLVQRFGELMRKLWNPRNFKAHV [USP39] | 2.47 ± 0.51 | 2.54 ± 0.7
PALSQLVNLYLGRSHFLWKEPATM [TCF25] | 3.25 ± 0.75 | 3.02 ± 0.9
GGLGTPLRLPMLNTEVVQVAAGRT [NEK8] | 4.11 ± 0.35 | 4.06 ± 0.31
ISKNKKKASNSIISCFNNAPPAKL [FAN1] | 3.36 ± 0.21 | 2.79 ± 0.31
FEHEMEESKKNRVEINDLDPEVFK [SPOPL] | 4.99 ± 0.39 | 5.02 ± 0.32
VAFVDRADIKQYIGPPSAAAIFKI [TRIP13] | 2.82 ± 0.66 | 2.36 ± 0.47
RLQELCHGWLRPEMRTKEQILELL [ZNF263] | 2.58 ± 0.11 | 2.9 ± 0.12
GCFRSQGASLRLAVEDGLQQFKQY [M1AP] | 2.88 ± 0.68 | 2.78 ± 0.074
AFREFDRDRDGRITVAELREAVPA [CABP4] | 4.65 ± 0.37 | 4.58 ± 0.17
KIIFRVGLVLLKHALGSPEKVKAC [TBC1D10A] | 2.77 ± 0.43 | 2.76 ± 0.19
